For series [1], the target named is T1, recombinant human IL-19 (Homo sapiens, UniProt Q9UHD0).
T1 sequence (Q9UHD0 25-177): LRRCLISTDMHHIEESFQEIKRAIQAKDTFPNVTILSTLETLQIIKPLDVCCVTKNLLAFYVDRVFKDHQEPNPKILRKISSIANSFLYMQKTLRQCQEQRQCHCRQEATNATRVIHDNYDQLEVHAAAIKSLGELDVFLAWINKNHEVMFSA
The series can be described thus: HDX-MS epitope mapping. In kind it is binding. The following applies: IL-19:antibody molar ratio 1:1.2.
Method: Briefly, HDX-MS is performed on a Waters nanoACQUITY system with HDX technology, including a LEAP HDX robotic liquid handling system and mass analysis is performed on a Waters Xevo G2-Tof mass spectrometer. […] The deuterium exchange experiment is initiated adding 55 uL of D2O buffer containing 0.1×PBS to 5 ul of human IL-19 or the human IL-19/antibody complex at 15° C. for various amounts of time (0 s, 10 s, 1 min, 10 min, 60 min, 120/240 min). The reaction is quenched using equal volume of was 0.32M TCEP, 0.1M phosphate pH 2.5 for two minutes at 1° C. 50 μL of the quenched reaction is injected on to an on-line pepsin column (Waters BEH Enzymate) at 14° C., using 0.2% formic acid in water as the mobile phase at a flow rate of 100 μL/min for 4 min. The resulting peptic peptides are then separated on a C18 column (Waters, Acquity UPLC BEH C18, 1.7 m, 1.0 mm×50 mm) fit with a Vanguard trap column using a 3 to 85% acetonitrile (containing 0.2% formic acid) gradient over 10 min at a flow rate of 50 L/min. The separated peptides are directed into a Waters Xevo G2 time-of-flight (qTOF) mass spectrometer. […] The relative deuterium incorporation for each peptide is determined by processing the MS data for deuterated samples along with the non-deuterated control in DynamX.

For series [2], the target named is T1, recombinant human IL-19. Briefly: Bio-layer interferometry (BLI) binding kinetics and affinity (Octet Red96). The following applies: 25° C.; 1:1 binding model. How it is done: Bio-layer interferometry (BLI) assay, measured with a Octet Red96® instrument available from ForteBio (using HBS-EP+ running buffer (GE Healthcare, 10 mM Hepes pH7.4+150 mM NaCl+3 mM EDTA+0.05% surfactant P20) at 25° C.), is used to measure binding of the exemplified IL-19 antibodies of the present invention to recombinant human IL-19 (having the amino acid sequence set for in SEQ ID NO: 1).
Except as noted, all reagents and materials are from ForteBio (Freemont, Calif.). An AMQ biosensor is used to immobilize antibody of interest for analysis. […] Recombinant human IL-19 is prepared to concentrations of 270, 90, 30, 10, 3.33, 1.11, 0.370, and 0 (blank) nM by dilution into running buffer. Each analysis consists of: (1) capturing antibody samples on biosensors for 300 secs; (2) establishing a baseline by incubating antibody loaded biosensors with running buffer for 60 secs; (3) incubating antibody loaded biosensors with serially diluted recombinant human IL-19 for 300 secs to monitor association phase; (4) return of biosensor to running buffer to monitor dissociation phase.
Binding data is processed using standard double-referencing and fit to a 1:1 binding model using Data Analysis v9.0 evaluation software, to determine the association rate (kon, M^−1 s^−1 units), dissociation rate (koff, s^−1 units), and Rmax (nm units). The equilibrium dissociation constant (KD) was calculated from the relationship KD=koff/kon, and is in molar units.
A general note: Biolayer interferometry detects binding as a change in optical thickness at a sensor tip.

In series [3] the target is T2, human IL-19 / human IL-20R beta Fc-fusion protein (Homo sapiens, UniProt Q9UHD0).
T2 sequence (Q9UHD0 25-177): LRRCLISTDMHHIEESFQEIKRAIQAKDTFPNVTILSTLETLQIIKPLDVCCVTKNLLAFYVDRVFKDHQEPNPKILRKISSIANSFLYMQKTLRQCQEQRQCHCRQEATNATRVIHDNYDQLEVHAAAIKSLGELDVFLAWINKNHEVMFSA
The series can be described thus: BLI in vitro neutralization: IL-19 captured by antibody, then incubated with IL-20R beta Fc. The following applies: block of IL-19 binding to soluble receptor. From the text: Alternatively, a biophysical assay such as bio-layer interferometry (BLI) may be used for assessing neutralization of IL-19 by antibodies of the present invention. Binding between a ligand immobilized on the biosensor tip surface and an analyte in solution produces an increase in optical thickness at the biosensor tip, which results in a wavelength shift (expressed in nm). According to such assay, the IL-19 receptor (i.e., […]) is expressed in a membrane-free manner (such as with an Fc-fusion e.g. IL20Rbeta Fc chimera protein from R&D Systems catalog 1788-IR-050). […] The immobilized antibodies are then incubated with recombinant human IL-19 protein diluted to 100 nM using HBS-EP+ running buffer (GE Healthcare, 10 mM Hepes pH7.4+150 mM NaCl+3 mM EDTA+0.05% surfactant P20) for 240-300 secs. The human IL-19, after binding to the anti-IL-19 antibody, is assessed by incubation with human IL-20R beta Fc-fusion protein for 240-300 secs. The ability of the antibody to block or neutralize binding of the IL-19 ligand to the soluble receptor is observed as a minimal (<0.025 nm) increase in the wavelength during this step of the assay.

The target in series [4] is T1, recombinant human IL-19. The series can be described thus: PathHunter eXpress IL20RA/IL20RB dimerization assay (cell-based neutralization). Details: host or cells: PathHunter eXpress IL20RA/IL20RB cells (DiscoverX 93-1027E3) carry the receptor partners. To be noted: eight experiments. From the text:
PathHunter® eXpress IL20RA/IL20RB dimerization assay (DiscoverX product code 93-1027E3) is used to assess ability of exemplified antibodies to prevent binding of human IL-19 recombinant protein in a cell-based assay format. The assay detects ligand induced dimerization of two subunits of a receptor-dimer pair. The cells have been engineered to co-express one receptor subunit fused to enzyme donor and a second dimer partner fused to enzyme acceptor. Binding of an agonist to one receptor subunit induces it to interact with its dimer partner, forcing complementation of the two enzyme fragments resulting in the formation of a functional enzyme that hydrolizes a substrate to generate a chemiluminescent signal. […] Human IL-19 recombinant protein with and without exemplified antibodies mixture is then incubated with cells overnight at 37° C./5% CO2. Substrate buffer is added to cells and incubated at room temperature for 1 hour in the dark before luminescent detection.

B1: R_39: rabbit-derived IL-19 antibody; LC SEQ ID NO: 310, HC SEQ ID NO: 311 (antibody)
heavy: QEQLKESGGGLVQPGGSLKLSCKASGFDLSSYGVSWVRQAPGKGLEWIGYIDPVFGSTYYANWVNGRFTISSDNAQNTLYLQLNSLTAADTATYFCARGSGYVYYGYTYDLWGPGTLVTVSSGQPKAPSVFPLAPCCGDTPSSTVTLGCLVKGYLPEPVTVTWNSGTLTNGVRTFPSVRQSSGLYSLSSVVSVTSSSQPVTCNVAHPATNTKVDKTVAPSTCSKPTCPPPELLGGPSVFIFPPKPKDTLMISRTPEVTCVVVDVSQDDPEVQFTWYINNEQVRTARPPLREQQFNSTIRVVSTLPIAHQDWLRGKEFKCKVHNKALPAPIEKTISKARGQPLEPKVYTMGPPREELSSRSVSLTCMINGFYPSDISVEWEKNGKAEDNYKTTPAVLDSDGSYFLYSKLSVPTSEWQRGDVFTCSVMHEALHNHYTQKSISRSPGK
light: DIVMTQTPASVEAAVGGTVTIKCQASQSIYRYLSWYQQKPGQRPKLLIYGASNLASGVSSRFKGSGSGTEFTLTISDLECADAATYYCQSYYYSSSSGYGNVFGGGTEVVVKGDPVAPTVLIFPPAADQVATGTVTIVCVANKYFPDVTVTWEVDGTTQTTGIENSKTPQNSADCTYNLSSTLTLTSTQYNSHKEYTCKVTQGTTSVVQSFNRGDC
The term kon denotes a measure of how fast the partners come together. For B1, the “residues of SEQ ID NO. 1 with decreased deuterium uptake in complex with antibody (epitope region)” value in series [1] was “residues 42-60 ([…]), 90-107 ([…]), and 149-160 ([…])”. The kon in series [2] amounted to 206000 M⁻¹ s⁻¹. For the same molecule, the Neutralization result in series [3] is “Yes (minimal (<0.025 nm) increase in the wavelength)”.

B2: M_1: murine-derived IL-19 antibody; LC SEQ ID NO: 2, HC SEQ ID NO: 6 (antibody)
heavy: EVQLQQSGPVLVKPGASVKMSCKASGYKFTDYFVGWVKQSHGKSLEWIGYVDPENGYTRCNQKFKGKATLTVDKSSSTAYMELNSLTSEDSAVYYCARYDYDWAWFTNWGQGTLVTVSAAKTTPPSVYPLAPGSAAQTNSMVTLGCLVKGYFPEPVTVTWNSGSLSSGVHTFPAVLQSDLYTLSSSVTVPSSTWPSETVTCNVAHPASSTKVDKKIVPRDCGCKPCICTVPEVSSVFIFPPKPKDVLTITLTPKVTCVVVDISKDDPEVQFSWFVDDVEVHTAQTQPREEQFNSTFRSVSELPIMHQDWLNGKEFKCRVNSAAFPAPIEKTISKTKGRPKAPQVYTIPPPKEQMAKDKVSLTCMITDFFPEDITVEWQWNGQPAENYKNTQPIMDTDGSYFVYSKLNVQKSNWEAGNTFTCSVLHEGLHNHHTEKSLSHSPGK
light: DIVMTQSPSSLAMSVGQKVTMSCKSSQSLLSSYNQKNYLAWYQQKPGQSPKLLVYFASTRPPGVPDRFIGSGSGSDFTLTISSVQAEDLADYFCQQHERLPITFGAGTKLELKRADAAPTVSIFPPSSEQLTSGGASVVCFLNNFYPKDINVKWKIDGSERQNGVLNSWTDQDSKDSTYSMSSTLTLTKDEYERHNSYTCEATHKTSTSPIVKSFNRNEC
In the case of B2, the “% inhibition +/− SEM (maximum signal inhibition percentage)” value in series [4] is 98.59 +/− 0.42%. Besides, in series [3], the Neutralization result is “Yes (minimal (<0.025 nm) increase in the wavelength)”.

For the origin of these results see US12459997B2, “Compounds and methods targeting interleukin-19” (Eli Lilly and Company, priority 2018, dated 2025).
